Common to all, as to type: biochemical
A short description of data set [1]: KARI enzyme assay on cell lysates with NADH and NADPH as cofactors. The protocol: In this example, different KARI enzymes (Table 7) were screened for their activity with NADH and NADPH as cofactor. The enzymes were expressed in an S. cerevisiae strain by means of 2 micron plasmids carrying the KARI genes under the control of the S. cerevisiae TDH3 promoter. The transformants were cultivated in shake flask fermentations as described below and samples were taken after 44 h, centrifuged at 4000×g for 10 mins at 4° C. and the cell pellets were stored at −80° C. until analysis. The pellets were lysed by bead beating and the lysates were analyzed by KARI activity assay as described below using NADH and NADPH as cofactors.
Patched cells (or single colonies) grown on YPD+G418 plates at 30° C. were mixed into 3 mL YP+12% dextrose+200 mM MES, pH 6.5+G418, in 14 mL culture tubes and incubated at 250 RPM, 30° C. for ˜24 hours. The cells from the cultures were used to inoculate YP+12% dextrose+200 mM MES, pH 6.5+G418, in non-baffled flasks with a vented grey screw-caps at OD600 0.01. The cultures were incubated at 250 RPM, 30° C. for 24 hours, diluted 1:3 and incubated for another 20 h at 250 RPM, 30° C. Samples for enzyme assay pellets and protein quantification pellets were taken from each shake flask, and cell-free supernatant was used to measure glucose levels in shake flasks.
The assay and no substrate control reactions were performed in triplicate for each sample. The following stock solutions were prepared: 1 M potassium phosphate, pH 7, 0.1 M MgCl2, 100 mM DTT, 25 mM NADH or NADPH, 200 mM 2-acetolactate. The 2-acetolactate was made fresh each time by mixing 50 μL Ethyl-2-acetoxy-2-methylacetoacetate (EAMAA) with 990 μL water. Gradually 260 μL of 2 N NaOH was added in 10 μL increments to the EAMAA water mixture. After each addition the sample was vortexed for 15 seconds, and the procedure repeated until the entire 260 μL of 2 N NaOH was added. Afterwards the solution was mixed on an orbital shaker for 20 min (Krampitz, 1957). KARI reaction buffer (100 μL per reaction) was prepared to the following concentrations: 250 mM potassium phosphate, pH 7, 10 mM MgCl2, 1 mM DTT, 0.2 mM NADH or NADPH, 10 mM 2-acetolactate. For the no substrate controls, the 2-acetolactate was substituted with water. 10 μL of each lysate were transferred into a 96 well half area assay plate. The reaction was started with 90 μL of reaction buffer to each well using a multichannel pipette. The samples were mixed immediately. The samples were read at 340 nm every 10 s for 5 min.

The nature of data set [2]: High-throughput screening of KARI variant libraries in E. coli lysates. As to the method:
For growth and expression of KARI variants in deep well plates, sterile toothpicks were used to pick single colonies into shallow 96-well plates filled with 300 μL LBamp. Fifty μL of these overnight cultures were used to inoculate deep well plates filled with 600 μL of LBamp per well. The plates were grown at 37° C. with shaking at 250 rpm for 3 h. One hour before induction with IPTG (final concentration 0.5 mM), the temperature of the incubator was reduced to 25° C. After induction, growth and expression continued for 20 h at 25° C. and 250 rpm. Cells were harvested at 5,300 g and 4° C. and then stored at −20=C. The plates always contained four wild-type or parent S. exigua KARI colonies, three BL21(DE3) colonies carrying pET22b(+) to control for background reactions in cell lysates, and one well that contained only media to make sure the plates were free of contaminations.
Frozen cell pellets were thawed at room temperature for 20 min and then 200 μL of lysis buffer (100 mM Kpi, 750 mg/L lysozyme, 10 mg/L DNaseI, pH 7) were added. Plates were vortexed to resuspend the cell pellets. After a 60 min incubation phase at 37° C. and shaking at 130 rpm, plates were centrifuged at 5,300 g and 4° C. for 10 min. […] The depletion of NAD(P)H was monitored at 340 nm in a plate reader (TECAN) over 200 s.

The nature of data set [3]: KARI assay of purified S. exigua KARI and variants with NADH (Examples 6-9). Particulars: for U/mg NADH (specific activity): cofactor NADH; for Km: read-out: Km for cofactor NADH; for Ratio NADH/NADPH (U/mg): specific activity ratio. The protocol: (§1) S. exigua KARI activity or activities of its variants were assayed kinetically by monitoring the decrease in NADPH or NADH concentration by measuring the change in absorbance at 340 nm. An assay buffer was prepared containing 100 mM potassium phosphate pH 7.0, 1 mM DTT, 2.5 mM (S)-2-acetolactate, and 10 mM MgCl2 (final concentrations in the 1-mL assay, accounting for dilution with enzyme and cofactor). Fifty μL purified enzyme and 930 μL of the assay buffer were placed into a 1-mL cuvette. The reaction was initiated by addition of 20 μL NADPH or NADH (200 μM final concentration) for a general activity assay. Michaelis-Menten constants of the cofactors were determined with varying concentrations of NADPH (200-12 μM final) or NADH (200-6 μM final).

Data set [4] can be described thus: KARI assay of purified S. exigua KARI and variants with NADPH (Examples 6-9). Particulars: for U/mg NADPH (specific activity): cofactor NADPH; for Km: read-out: Km for cofactor NADPH. As to the method: as §1

Consider eight molecules from patent US20140295512A1, “Ketol-Acid Reductoisomerases With Improved Performance Properties” (CALIFORNIA INSTITUTE OF TECHNOLOGY, priority 2011, published 2014).

Broadly, the Km is the concentration of substrate that gives half-maximal velocity.

Positions count from the first letter of the chain named. In names and notes the source's numbering stands.

B1: Zm: Zymomonas mobilis KARI homolog (protein, UniProt Q9X5F8 1-339, looked up)
Ketol-acid reductoisomerase …: MKVYYDSDADLGLIKSKKIAILGYGSQGHAHAQNLRDSGVAEVAIALRPDSASVKKAQDAGFKVLTNAEAAKWADILMILAPDEHQAAIYAEDLKDNLRPGSAIAFAHGLNIHFGLIEPRKDIDVFMIAPKGPGHTVRSEYVRGGGVPCLVAVDQDASGNAHDIALAYASGIGGGRSGVIETTFREEVETDLFGEQAVLCGGLTALITAGFETLTEAGYAPEMAFFECMHEMKLIVDLIYEAGIANMRYSISNTAEYGDIVSGPRVINEESKKAMKAILDDIQSGRFVSKFVLDNRAGQPELKAARKRMAAHPIEQVGARLRKMMPWIASNKLVDKARN
As for B1, the “Specific Activity with NADH/Specific Activity with NADPH” value in data set [1] is given as 0.074. The “NADH-Dependent Specific Activity” value in data set [1] (empty vector control subtracted) was 0.002 U/mg lysate.

B2: Se1_KARI^4E10: S. exigua KARI variant L57V, R58P, S61C (protein, UniProt D0WGK0 1-342, looked up, variant L57V R58P S61C)
Ketol-acid reductoisomerase …: MSVKTKEKEMAVTILYEQDVDPKVIQGLKVGIIGYGSQGHAHALNLMDSGVDVRVGVPEGCSSWKTAEEAGLKVTDMDTAAEEADVIMVLVPDEIQPKVYQEHIAAHLKAGNTLAFAHGFNIHYGYIVPPEDVNVIMCAPKGPGHIVRRQFTEGSGVPDLACVQQDATGNAWDIVLSYCWGVGGARSGIIKATFAEETEEDLFGEQAVLCGGLVELVKAGFETLTEAGYPPELAYFECYHEMKMIVDLMYESGIHFMNYSISNTAEYGEYYAGPKVINEQSREAMKEILKRIQDGSFAQEFVDDCNNGHKRLLEQREAINTHPIETTGAQIRSMFSWIKKED
Turning to B2, the “NADH/NADPH activity ratio in the screen/rescreen relative to parent” value in data set [2] was “more than doubled”. Also, in data set [3], the “kcat NADH” value was 0.90 s⁻¹, the “kcat/Km ratio NADH/NADPH (cofactor specificity)” value (shortened to “kcat/Km ratio NADH/NADPH”) came to 0.1, the “U/mg NADH (specific activity)” value was 0.36 U/mg and the Km is 49 µM. For the same molecule, the “Ratio NADH/NADPH (U/mg)” value in data set [3] is recorded as 1.0. Moreover, in data set [3] (listed as 4E10), the “Ratio NADH/NADPH (U/mg)” value turned out to be 1. In data set [4], the “kcat NADPH” value worked out at 0.90 s⁻¹, the “U/mg NADPH (specific activity)” value is given as 0.36 U/mg and the Km came out at 4 µM.

B3: Se1_KARI^13G6: S. exigua KARI variant G60V, I95A (protein, UniProt D0WGK0 1-342, looked up, variant G60V I95A)
Ketol-acid reductoisomerase …: B2 Ketol-acid reductoisomerase … with V57L, P58R, G60V, C61S, I95A
As to B3, in data set [3], the “kcat NADH” value was found to be 0.74 s⁻¹, the “kcat/Km ratio NADH/NADPH” value was determined as 0.03, the “U/mg NADH (specific activity)” value was 0.30 U/mg and the Km came to 34 µM. In data set [3], the “Ratio NADH/NADPH (U/mg)” value was determined as 0.8. Moreover, in data set [4], the “kcat NADPH” value came to 0.90 s⁻¹, the “U/mg NADPH (specific activity)” value is recorded as 0.37 U/mg and the Km was below 1 µM.

B4: Se1_KARI^AC1: S. exigua KARI variant S63D, I95A (protein, UniProt D0WGK0 1-342, looked up, variant S63D I95A)
Ketol-acid reductoisomerase …: B2 Ketol-acid reductoisomerase … with V57L, P58R, C61S, S63D, I95A
For the molecule B4, in data set [3], the “kcat NADH” value is 0.5 s⁻¹, the “kcat/Km ratio NADH/NADPH” value is given as 0.3, the “U/mg NADH (specific activity)” value was 0.2 U/mg and the Km was found to be 68 µM. Moreover, in data set [3], the “Ratio NADH/NADPH (U/mg)” value was 0.5. In data set [4], the “kcat NADPH” value came out at 1 s⁻¹, the “U/mg NADPH (specific activity)” value amounted to 0.4 U/mg and the Km was 45 µM.

B5: Se1_NKR^Gen6-his6: S. exigua KARI variant S61D, S63D, I95V (protein, UniProt D0WGK0 1-342, looked up, variant S61D S63D I95V)
Ketol-acid reductoisomerase …: B2 Ketol-acid reductoisomerase … with V57L, P58R, C61D, S63D, I95V
modifications: His6 tag
notes: S. exigua KARI variant S61D, S63D, I95V
B5: in data set [3], the “kcat NADH” value worked out at 1 ± 0.01 s⁻¹, the “kcat/Km ratio NADH/NADPH” value was determined as 87, the “U/mg NADH (specific activity)” value amounted to 0.4 ± 0.01 U/mg and the Km came out at 47 ± 15 µM. Further, in data set [3], the “Ratio NADH/NADPH (U/mg)” value is on record as 5.7. Besides, in data set [4], the “kcat NADPH” value is 0.18 ± 0.00 s⁻¹, the “U/mg NADPH (specific activity)” value worked out at 0.07 ± 0.0 U/mg and the Km is above 1000 µM.

B6: Se1_KARI^14B7: S. exigua KARI variant Y35H, S63D, I95V (protein, UniProt D0WGK0 1-342, looked up, variant Y35H S63D I95V)
Ketol-acid reductoisomerase …: B2 Ketol-acid reductoisomerase … with Y35H, V57L, P58R, C61S, S63D, I95V
As for B6, in data set [3], the “kcat NADH” value was 0.45 s⁻¹, the “U/mg NADH (specific activity)” value was found to be 0.18 U/mg and the “Ratio NADH/NADPH (U/mg)” value is reported as 0.32. Besides, in data set [4], the “kcat NADPH” value was determined as 1.4 s⁻¹ and the “U/mg NADPH (specific activity)” value is listed as 0.56 U/mg.

B7: Se1_KARI^1H1: S. exigua KARI variant R58P, S61C (protein, UniProt D0WGK0 1-342, looked up, variant R58P S61C)
Ketol-acid reductoisomerase …: B2 Ketol-acid reductoisomerase … with V57L
For B7, in data set [3], the “kcat NADH” value was 0.50 s⁻¹, the “U/mg NADH (specific activity)” value turned out to be 0.20 U/mg and the “Ratio NADH/NADPH (U/mg)” value amounted to 0.8. Besides, in data set [4], the “kcat NADPH” value worked out at 0.65 s⁻¹ and the “U/mg NADPH (specific activity)” value is on record as 0.26 U/mg.

B8: Se1_KARI^2C6: S. exigua KARI variant L57V, R58P (protein, UniProt D0WGK0 1-342, looked up, variant L57V R58P)
Ketol-acid reductoisomerase …: B2 Ketol-acid reductoisomerase … with C61S
On to B8, for which, in data set [3], the “kcat NADH” value is 0.55 s⁻¹, the “U/mg NADH (specific activity)” value came out at 0.22 U/mg and the “Ratio NADH/NADPH (U/mg)” value is 0.7. In addition, in data set [4], the “kcat NADPH” value was determined as 0.80 s⁻¹ and the “U/mg NADPH (specific activity)” value turned out to be 0.33 U/mg.
